Laboratory results published in publication PMC9482650, “Quantitative fragmentomics allow affinity mapping of interactomes” (Nature Communications, 2022).

T1: APBA2_1, Q99767
T1 sequence (Q99767 563-664, limits assumed, looked up): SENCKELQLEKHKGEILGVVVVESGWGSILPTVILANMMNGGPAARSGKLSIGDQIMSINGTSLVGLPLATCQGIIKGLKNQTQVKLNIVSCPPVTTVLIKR

T2: APBA2_2, Q99767
T2 sequence (Q99767 654-744, limits assumed, looked up): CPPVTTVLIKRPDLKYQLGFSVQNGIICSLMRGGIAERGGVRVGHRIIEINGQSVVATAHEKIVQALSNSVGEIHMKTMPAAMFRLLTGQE

T3: NHERF3_3, Q5T2W1
T3 sequence (Q5T2W1 238-333, limits assumed, looked up): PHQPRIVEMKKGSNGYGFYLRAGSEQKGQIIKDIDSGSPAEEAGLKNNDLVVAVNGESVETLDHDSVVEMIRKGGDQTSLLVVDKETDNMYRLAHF

T4: LNX2_3, Q8N448
T4 sequence (Q8N448 463-564, limits assumed, looked up): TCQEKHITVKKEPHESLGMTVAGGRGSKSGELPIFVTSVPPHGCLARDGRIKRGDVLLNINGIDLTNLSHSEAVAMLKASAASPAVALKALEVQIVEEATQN

T5: DVL3, Q92997
T5 sequence (Q92997 244-331, limits assumed, looked up): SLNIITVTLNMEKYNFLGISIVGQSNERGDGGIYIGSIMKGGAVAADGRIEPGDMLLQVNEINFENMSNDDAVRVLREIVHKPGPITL

T6: APBA1_2, Q02410
T6 sequence (Q02410 742-832, limits assumed, looked up): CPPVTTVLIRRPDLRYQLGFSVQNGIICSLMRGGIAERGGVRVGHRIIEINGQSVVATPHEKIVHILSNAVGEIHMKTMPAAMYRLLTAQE

T7: SNTA1, Q13424
T7 sequence (Q13424 82-180, limits assumed, looked up): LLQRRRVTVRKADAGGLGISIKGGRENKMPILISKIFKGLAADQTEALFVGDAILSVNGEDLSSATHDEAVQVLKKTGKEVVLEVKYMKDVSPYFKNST

T8: LIN7C, Q9NUP9
T8 sequence (Q9NUP9 88-185, limits assumed, looked up): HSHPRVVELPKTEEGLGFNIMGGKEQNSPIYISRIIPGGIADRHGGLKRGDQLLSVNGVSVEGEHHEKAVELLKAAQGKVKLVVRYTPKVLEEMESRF

T9: MPDZ_10, O75970
T9 sequence (O75970 1624-1722, limits assumed, looked up): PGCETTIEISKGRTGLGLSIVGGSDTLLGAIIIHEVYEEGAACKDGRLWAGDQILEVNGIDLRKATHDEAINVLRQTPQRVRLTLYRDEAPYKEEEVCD

T10: HTRA3, P83110
T10 sequence (P83110 354-453, limits assumed, looked up): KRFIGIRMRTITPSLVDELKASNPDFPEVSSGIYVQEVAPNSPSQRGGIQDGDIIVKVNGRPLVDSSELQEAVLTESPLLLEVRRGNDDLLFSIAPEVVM

T11: LNX2_2, Q8N448
T11 sequence (Q8N448 334-432, limits assumed, looked up): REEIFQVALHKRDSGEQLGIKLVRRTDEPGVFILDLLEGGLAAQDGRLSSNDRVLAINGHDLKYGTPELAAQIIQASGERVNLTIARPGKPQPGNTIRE

T12: APBA1_1, Q02410
T12 sequence (Q02410 651-752, limits assumed, looked up): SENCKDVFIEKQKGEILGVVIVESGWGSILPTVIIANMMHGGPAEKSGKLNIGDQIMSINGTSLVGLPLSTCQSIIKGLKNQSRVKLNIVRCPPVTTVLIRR

T13: GRIP1_4, Q9Y3R0
T13 sequence (Q9Y3R0 467-571, limits assumed, looked up): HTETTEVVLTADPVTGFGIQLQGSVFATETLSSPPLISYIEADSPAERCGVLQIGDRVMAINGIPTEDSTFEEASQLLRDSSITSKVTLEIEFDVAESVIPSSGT


Assays:
Assay in all cases: holdup assay
Set-up in all cases: key: below the threshold = too weak to quantify, mostly under pKd 3.1 to 4
Conditions in all cases: plain residues with an end cap or a label only (N-terminal biotin on a linker: ado-ado)
DLG4_1, P78352 = biological target: DLG4_1, P78352
Sequence of DLG4_1, P78352 (P78352 62-152): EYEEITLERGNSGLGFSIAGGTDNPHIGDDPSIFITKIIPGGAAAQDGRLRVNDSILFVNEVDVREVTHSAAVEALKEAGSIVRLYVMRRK

APBA2_1, Q99767 = biological target: T1, APBA2_1, Q99767
LNX1_2, Q8TBB1 = biological target: LNX1_2, Q8TBB1
Sequence of LNX1_2, Q8TBB1 (Q8TBB1 371-470): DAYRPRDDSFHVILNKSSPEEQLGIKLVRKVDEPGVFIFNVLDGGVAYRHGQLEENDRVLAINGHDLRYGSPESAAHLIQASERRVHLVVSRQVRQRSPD

Inadl_4, Q8NI35 = biological target: Inadl_4, Q8NI35
Sequence of Inadl_4, Q8NI35 (Q8NI35 547-651): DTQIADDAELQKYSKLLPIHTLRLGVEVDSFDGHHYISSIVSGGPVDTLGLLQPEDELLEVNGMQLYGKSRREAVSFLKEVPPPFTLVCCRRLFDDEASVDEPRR

PDLIM1, O00151 = biological target: PDLIM1, O00151
Sequence of PDLIM1, O00151 (O00151 1-87): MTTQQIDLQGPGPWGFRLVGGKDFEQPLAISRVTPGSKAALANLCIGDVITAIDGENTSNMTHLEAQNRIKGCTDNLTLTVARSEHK

MAGI2_2, Q86UL8 = biological target: MAGI2_2, Q86UL8
Sequence of MAGI2_2, Q86UL8 (Q86UL8 410-522): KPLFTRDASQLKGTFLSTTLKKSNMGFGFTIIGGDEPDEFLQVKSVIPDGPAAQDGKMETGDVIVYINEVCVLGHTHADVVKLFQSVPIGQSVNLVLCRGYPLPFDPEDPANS

APBA2_2, Q99767 = biological target: T2, APBA2_2, Q99767
LNX1_3, Q8TBB1 = biological target: LNX1_3, Q8TBB1
Sequence of LNX1_3, Q8TBB1 (Q8TBB1 500-596): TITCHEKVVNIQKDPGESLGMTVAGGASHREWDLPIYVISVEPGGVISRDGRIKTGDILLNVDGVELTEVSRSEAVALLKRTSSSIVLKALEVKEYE

NHERF3_3, Q5T2W1 = biological target: T3, NHERF3_3, Q5T2W1
LNX2_3, Q8N448 = biological target: T4, LNX2_3, Q8N448
DVL3, Q92997 = biological target: T5, DVL3, Q92997
APBA1_2, Q02410 = biological target: T6, APBA1_2, Q02410
FRMPD2_3, Q68DX3 = biological target: FRMPD2_3, Q68DX3
Sequence of FRMPD2_3, Q68DX3 (Q68DX3 1073-1166): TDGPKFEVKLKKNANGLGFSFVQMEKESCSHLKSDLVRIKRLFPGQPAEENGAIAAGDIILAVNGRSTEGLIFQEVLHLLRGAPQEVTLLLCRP

SNTA1, Q13424 = biological target: T7, SNTA1, Q13424
LIN7C, Q9NUP9 = biological target: T8, LIN7C, Q9NUP9
NHERF4_4, Q86UT5 = biological target: NHERF4_4, Q86UT5
Sequence of NHERF4_4, Q86UT5 (Q86UT5 464-550): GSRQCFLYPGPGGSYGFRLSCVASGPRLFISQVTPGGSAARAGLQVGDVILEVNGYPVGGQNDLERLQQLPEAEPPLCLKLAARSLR

MPDZ_10, O75970 = biological target: T9, MPDZ_10, O75970
HTRA3, P83110 = biological target: T10, HTRA3, P83110
GRIP2_4, Q9C0E4 = biological target: GRIP2_4, Q9C0E4
Sequence of GRIP2_4, Q9C0E4 (Q9C0E4 446-548): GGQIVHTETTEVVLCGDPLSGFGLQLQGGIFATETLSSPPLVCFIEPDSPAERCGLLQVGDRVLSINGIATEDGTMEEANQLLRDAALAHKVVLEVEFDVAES

LNX2_2, Q8N448 = biological target: T11, LNX2_2, Q8N448
SCRIB_1, Q14160 = biological target: SCRIB_1, Q14160
Sequence of SCRIB_1, Q14160 (Q14160 718-814): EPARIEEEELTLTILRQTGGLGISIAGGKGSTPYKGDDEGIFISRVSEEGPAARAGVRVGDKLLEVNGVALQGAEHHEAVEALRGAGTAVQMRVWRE

NHERF4_2, Q86UT5 = biological target: NHERF4_2, Q86UT5
Sequence of NHERF4_2, Q86UT5 (Q86UT5 220-308): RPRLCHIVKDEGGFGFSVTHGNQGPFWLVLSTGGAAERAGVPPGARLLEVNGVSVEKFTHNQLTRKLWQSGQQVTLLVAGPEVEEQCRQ

GRID2IP_1, A4D2P6 = biological target: GRID2IP_1, A4D2P6
Sequence of GRID2IP_1, A4D2P6 (A4D2P6 1-87): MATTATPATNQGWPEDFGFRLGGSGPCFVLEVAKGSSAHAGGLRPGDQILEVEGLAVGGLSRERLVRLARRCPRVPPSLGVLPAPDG

APBA1_1, Q02410 = biological target: T12, APBA1_1, Q02410
GRIP1_4, Q9Y3R0 = biological target: T13, GRIP1_4, Q9Y3R0

Row | pKd (DLG4_1, P78352) | pKd (APBA2_1, Q99767) | pKd (LNX1_2, Q8TBB1) | pKd (Inadl_4, Q8NI35) | pKd (PDLIM1, O00151) | pKd (MAGI2_2, Q86UL8) | pKd (APBA2_2, Q99767) | pKd (LNX1_3, Q8TBB1) | pKd (NHERF3_3, Q5T2W1) | pKd (LNX2_3, Q8N448) | pKd (DVL3, Q92997) | pKd (APBA1_2, Q02410) | pKd (FRMPD2_3, Q68DX3) | pKd (SNTA1, Q13424) | pKd (LIN7C, Q9NUP9) | pKd (NHERF4_4, Q86UT5) | pKd (MPDZ_10, O75970) | pKd (HTRA3, P83110) | pKd (GRIP2_4, Q9C0E4) | pKd (LNX2_2, Q8N448) | Binder | further results
1 | below the threshold | below the threshold | below the threshold | below the threshold | below the threshold | below the threshold | below the threshold | below the threshold | below the threshold | below the threshold | below the threshold | below the threshold | below the threshold | below the threshold | 3.95 | below the threshold | below the threshold | below the threshold | below the threshold | below the threshold | DHLGGGGESM [TNRC6A, Q8NDV7] | pKd (SCRIB_1, Q14160): below the threshold; pKd (NHERF4_2, Q86UT5): below the threshold; pKd (GRID2IP_1, A4D2P6): below the threshold; pKd (APBA1_1, Q02410): below the threshold; pKd (GRIP1_4, Q9Y3R0): below the threshold
2 | 3.84 | below the threshold | below the threshold | below the threshold | below the threshold | 3.89 | below the threshold | below the threshold | below the threshold | below the threshold | below the threshold | 3.58 | below the threshold | below the threshold | below the threshold | below the threshold | below the threshold | below the threshold | below the threshold | 4.05 | NLQEHSTTSV [RSBN1, Q5VWQ0] | pKd (SCRIB_1, Q14160): 3.58; pKd (NHERF4_2, Q86UT5): below the threshold; pKd (GRID2IP_1, A4D2P6): below the threshold; pKd (APBA1_1, Q02410): below the threshold; pKd (GRIP1_4, Q9Y3R0): below the threshold

Second part, the binder before the results:

Row | Binder | pKd (DLG4_1, P78352) | pKd (APBA2_1, Q99767) | pKd (LNX1_2, Q8TBB1) | pKd (Inadl_4, Q8NI35) | pKd (PDLIM1, O00151) | pKd (MAGI2_2, Q86UL8) | pKd (APBA2_2, Q99767) | pKd (LNX1_3, Q8TBB1) | pKd (NHERF3_3, Q5T2W1) | pKd (LNX2_3, Q8N448) | pKd (DVL3, Q92997) | pKd (APBA1_2, Q02410) | pKd (FRMPD2_3, Q68DX3) | pKd (SNTA1, Q13424) | pKd (LIN7C, Q9NUP9) | pKd (NHERF4_4, Q86UT5) | pKd (MPDZ_10, O75970) | pKd (HTRA3, P83110) | pKd (GRIP2_4, Q9C0E4) | pKd (LNX2_2, Q8N448) | further results
3 | TGLWKSETTV [ADGRA2, Q96PE1] | 4.94 | below the threshold | 3.89 | below the threshold | below the threshold | 5.37 | below the threshold | below the threshold | below the threshold | below the threshold | below the threshold | 3.57 | below the threshold | 4.41 | 4.29 | below the threshold | below the threshold | below the threshold | below the threshold | 4.98 | pKd (SCRIB_1, Q14160): 4.34; pKd (NHERF4_2, Q86UT5): below the threshold; pKd (GRID2IP_1, A4D2P6): below the threshold; pKd (APBA1_1, Q02410): below the threshold; pKd (GRIP1_4, Q9Y3R0): below the threshold
4 | HLRQQGSVEV [EPHB6, O15197] | 3.5 | below the threshold | 4.1 | below the threshold | below the threshold | below the threshold | below the threshold | below the threshold | below the threshold | below the threshold | below the threshold | 3.99 | below the threshold | below the threshold | below the threshold | below the threshold | below the threshold | 3.81 | below the threshold | 5.03 | pKd (SCRIB_1, Q14160): below the threshold; pKd (NHERF4_2, Q86UT5): below the threshold; pKd (GRID2IP_1, A4D2P6): 4.13; pKd (APBA1_1, Q02410): below the threshold; pKd (GRIP1_4, Q9Y3R0): below the threshold
5 | IPGKEFDTPL [PLCB1, Q9NQ66] | 3.51 | below the threshold | below the threshold | below the threshold | below the threshold | below the threshold | below the threshold | below the threshold | below the threshold | below the threshold | below the threshold | below the threshold | below the threshold | 3.51 | below the threshold | below the threshold | below the threshold | below the threshold | below the threshold | below the threshold | pKd (SCRIB_1, Q14160): 3.93; pKd (NHERF4_2, Q86UT5): below the threshold; pKd (GRID2IP_1, A4D2P6): below the threshold; pKd (APBA1_1, Q02410): below the threshold; pKd (GRIP1_4, Q9Y3R0): below the threshold
